The values that follow come from patent US20190169310A1 (Amgen, published 2019).

One test has as its target T1, human PSMA (human, UniProt Q04609 1-750).
T1 construct: whole, on cells; also called prostate-specific membrane antigen
Kind of test: Pepscan ELISA, 15-mer peptides of the extracellular domain of human PSMA. A general note: An ELISA detects its analyte on a solid surface through an enzyme-linked reagent.

For a further test, the target named is T2, 1-27 CD3-Fc (human).
T2 construct: assigned to this molecule; also called 1-27 CD3ε-Fc; 27 aa huCD3E
Kind of test: ELISA, periplasmic scFv on captured 1-27 CD3-Fc.

In a further test the target is T3, human 1-27 CD3ε-EpCAM (human).
T3 construct: also called 1-27 CD3-EpCAM comprising the human 27 mer
T3 chain: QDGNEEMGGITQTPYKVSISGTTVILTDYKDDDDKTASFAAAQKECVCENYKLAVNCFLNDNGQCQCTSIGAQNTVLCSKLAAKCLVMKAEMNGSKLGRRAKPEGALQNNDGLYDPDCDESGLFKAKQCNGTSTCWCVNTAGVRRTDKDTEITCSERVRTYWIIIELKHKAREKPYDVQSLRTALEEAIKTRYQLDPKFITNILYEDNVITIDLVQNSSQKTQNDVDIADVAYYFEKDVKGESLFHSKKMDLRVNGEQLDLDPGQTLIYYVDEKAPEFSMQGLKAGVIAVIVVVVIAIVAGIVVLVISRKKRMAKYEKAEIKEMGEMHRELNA
Kind of test: FACS, 293-HEK transfectants.

For the next test, the target named is T4, swine 1-27 CD3ε-EpCAM (Sus scrofa).
T4 construct: negative control; also called 1-27 CD3-EpCAM comprising the swine 27 mer
T4 chain: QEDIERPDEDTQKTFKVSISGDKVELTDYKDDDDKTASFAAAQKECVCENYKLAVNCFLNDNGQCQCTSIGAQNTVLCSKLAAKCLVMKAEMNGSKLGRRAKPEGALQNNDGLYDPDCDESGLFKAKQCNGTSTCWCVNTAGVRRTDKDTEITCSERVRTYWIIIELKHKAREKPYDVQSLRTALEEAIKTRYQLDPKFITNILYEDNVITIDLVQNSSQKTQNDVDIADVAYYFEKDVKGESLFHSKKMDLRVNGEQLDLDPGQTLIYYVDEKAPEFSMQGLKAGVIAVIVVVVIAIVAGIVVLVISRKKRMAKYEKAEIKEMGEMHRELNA
Kind of test: FACS, 293-HEK transfectants.

The target of the next test is T5, marmoset 1-27 CD3ε-EpCAM (Callithrix jacchus).
T5 construct: also called 1-27 CD3-EpCAM comprising the marmoset 27 mer
T5 chain: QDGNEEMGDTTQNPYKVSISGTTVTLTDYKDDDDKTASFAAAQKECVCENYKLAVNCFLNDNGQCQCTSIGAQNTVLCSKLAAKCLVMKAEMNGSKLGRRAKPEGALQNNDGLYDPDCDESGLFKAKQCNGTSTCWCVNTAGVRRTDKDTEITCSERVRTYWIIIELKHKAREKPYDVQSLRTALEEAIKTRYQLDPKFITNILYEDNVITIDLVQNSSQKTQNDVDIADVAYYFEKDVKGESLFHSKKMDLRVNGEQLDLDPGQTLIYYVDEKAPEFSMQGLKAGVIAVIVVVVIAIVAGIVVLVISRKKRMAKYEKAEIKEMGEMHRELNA
Kind of test: FACS, 293-HEK transfectants. A general note: Flow cytometry measures light scatter and fluorescence of single cells or particles in a stream.

The target of a further test is T6, tamarin 1-27 CD3ε-EpCAM (Saguinus oedipus).
T6 construct: also called 1-27 CD3-EpCAM comprising the tamarin 27 mer
T6 chain: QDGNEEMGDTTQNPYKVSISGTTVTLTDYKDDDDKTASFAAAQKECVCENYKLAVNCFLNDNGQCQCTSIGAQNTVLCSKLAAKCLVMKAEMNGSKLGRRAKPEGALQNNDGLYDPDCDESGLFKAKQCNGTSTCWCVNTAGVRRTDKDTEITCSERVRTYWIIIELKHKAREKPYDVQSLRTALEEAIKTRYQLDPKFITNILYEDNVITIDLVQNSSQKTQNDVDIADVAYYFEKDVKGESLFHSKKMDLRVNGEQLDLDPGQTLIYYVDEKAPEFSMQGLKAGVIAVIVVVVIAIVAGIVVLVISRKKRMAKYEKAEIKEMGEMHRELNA
Kind of test: FACS, 293-HEK transfectants.

Test [1] addresses T7, squirrel monkey 1-27 CD3ε-EpCAM (Saimiri sciureus).
T7 construct: also called 1-27 CD3-EpCAM comprising the squirrel monkey 27 mer
T7 chain: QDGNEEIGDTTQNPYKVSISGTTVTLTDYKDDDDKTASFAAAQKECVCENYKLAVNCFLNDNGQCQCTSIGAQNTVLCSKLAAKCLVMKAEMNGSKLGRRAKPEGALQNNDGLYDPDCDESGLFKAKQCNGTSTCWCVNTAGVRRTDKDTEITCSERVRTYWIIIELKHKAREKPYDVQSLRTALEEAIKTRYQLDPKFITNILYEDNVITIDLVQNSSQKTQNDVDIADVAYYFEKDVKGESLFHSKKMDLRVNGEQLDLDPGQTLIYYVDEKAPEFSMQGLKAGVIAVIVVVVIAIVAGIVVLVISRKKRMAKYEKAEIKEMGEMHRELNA
Kind of test: FACS, 293-HEK transfectants.

T1 sequence (Q04609 whole entry): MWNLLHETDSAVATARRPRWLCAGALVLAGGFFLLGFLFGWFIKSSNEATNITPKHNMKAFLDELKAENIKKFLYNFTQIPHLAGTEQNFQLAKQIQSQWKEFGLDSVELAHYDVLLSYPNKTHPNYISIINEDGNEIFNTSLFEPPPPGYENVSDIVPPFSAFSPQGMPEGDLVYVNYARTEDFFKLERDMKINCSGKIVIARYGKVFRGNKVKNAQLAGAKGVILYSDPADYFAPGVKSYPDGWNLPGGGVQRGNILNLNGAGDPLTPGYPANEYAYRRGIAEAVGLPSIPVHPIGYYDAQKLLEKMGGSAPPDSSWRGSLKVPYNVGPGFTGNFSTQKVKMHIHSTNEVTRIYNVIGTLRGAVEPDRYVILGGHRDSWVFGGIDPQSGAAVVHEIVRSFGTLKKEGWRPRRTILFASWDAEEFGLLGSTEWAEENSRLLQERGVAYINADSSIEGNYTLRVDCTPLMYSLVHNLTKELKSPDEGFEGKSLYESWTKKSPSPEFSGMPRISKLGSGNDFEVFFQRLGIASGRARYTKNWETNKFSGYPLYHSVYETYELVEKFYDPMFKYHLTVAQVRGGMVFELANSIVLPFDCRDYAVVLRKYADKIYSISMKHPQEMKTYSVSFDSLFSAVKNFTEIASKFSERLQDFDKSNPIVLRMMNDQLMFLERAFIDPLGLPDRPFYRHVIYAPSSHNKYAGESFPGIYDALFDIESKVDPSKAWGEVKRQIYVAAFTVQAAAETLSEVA
Description for human PSMA: These three PSMA BiTE antibodies were subjected to an alternative epitope mapping approach based on peptide scanning (Pepscan). Pepscan uses overlapping peptides of a given protein and analyses antibody binding to immobilized peptides by enzyme-linked immunosorbent assays (ELISAs). The epitope mapping experiments with PSMA BiTE antibodies were performed at the company Pepscan (Lelystad, The Netherlands).
These peptides were coated to ELISA wells in a 384-well plate format. […] To this end 7 ml of crude periplasmic extracts were shipped on dry ice to Pepscan (The Netherlands). Using scFv counterparts in this assay minimized the risk to pick up signals from the second non-PSMA binding specificity of the BiTE antibodies, which may lead to misinterpretation of the PSMA binding epitopes of the target binders. The scFvs were incubated with the peptides and specific binding detected using an anti-His antibody. Binding signals were measured in a 384-well ELISA reader.

B1: scFv MP 9076-A9 (scFv)
scFv: QVQLVESGGGLVKPGGSLRLSCAASGFTFSDYYMYWVRQAPGKGLEWVAIISDGGYYTYYSDIIKGRFTISRDNAKNNLYLQMNSLRAEDTAVYYCARGFPLLRHGAMDYWGQGTLVTVSSGGGGSGGGGSGGGGSDIQMTQSPSSLSASVGDRVTITCKASQNVDTNVAWYQQKPGQAPKSLIYSASYRYSDVPSRFSGSASGTDFTLTISSVQSEDFATYYCQQYDSYPYTFGGGTKLEIK
notes: crude periplasmic extract from E. coli, His-tagged (His detection); also called PM76A9-HL
Turning to B1, in the test with human PSMA, the binding result was “binds”.

B2: scFv MP 9076-B10 (scFv)
scFv: QVQLVESGGGLVKPGESLRLSCAASGFTFSDYYMYWVRQAPGKGLEWVAIISDGGYYTYYSDIIKGRFTISRDNAKNSLYLQMNSLKAEDTAVYYCARGFPLLRHGAMDYWGQGTLVTVSSGGGGSGGGGSGGGGSDIQMTQSPSSLSASVGDRVTITCKASQNVDTNVAWYQQKPGQAPKSLIYSASYRYSDVPSRFSGSASGTDFTLTISSVQSEDFATYYCQQYDSYPYTFGGGTKLEIK
notes: crude periplasmic extract from E. coli, His-tagged; 610 read as B10; also called MP 9076-610; MP9076-610 (so in the source)
Regarding B2, in the test with human PSMA, the binding result is “binds”.

B3: A2J HLP (scFv)
scFv: EVQLLESGGGLVQPGGSLKLSCAASGFTFNVYAMNWVRQAPGKGLEWVARIRSKYNNYATYYADSVKKRFTISRDDSKNTAYLQMNNLKTEDTAVYYCVRHGNFGNSYLSWWAYWGQGTLVTVSSGGGGSGGGGSGGGGSELVVTQEPSLTVSPGGTVTLTCRSSTGAVTSGYYPNWVQQKPGQAPRGLIGATDMRPSGTPARFSGSLLGGKAALTLSGVQPEDEAEYYCALWYSNRWVFGGGTKLTVL
notes: crude periplasmic preparation; also called VH-VL-P of A2J
On to B3, for which the binding result with 1-27 CD3-Fc was “binds”.

B4: E2M HLP (scFv)
scFv: EVQLLESGGGLVQPGGSLKLSCAASGFTFNGYAMNWVRQAPGKGLEWVARIRSKYNNYATYYADSVKERFTISRDDSKNTAYLQMNNLKTEDTAVYYCVRHRNFGNSYLSWFAYWGQGTLVTVSSGGGGSGGGGSGGGGSELVVTQEPSLTVSPGGTVTLTCRSSTGAVTSGYYPNWVQQKPGQAPRGLIGATDMRPSGTPARFSGSLLGGKAALTLSGVQPEDEAEYYCALWYSNRWVFGGGTKLTVL
notes: crude periplasmic preparation; also called VH-VL-P of E2M
Take B4: the binding result with human 1-27 CD3ε-EpCAM is “binds”; with swine 1-27 CD3ε-EpCAM, “no binding”; in the test with marmoset 1-27 CD3ε-EpCAM, “binds”; in the test with tamarin 1-27 CD3ε-EpCAM it was “binds”; in test [1] it was “binds”; in the test with 1-27 CD3-Fc it was “binds”.

B5: scFv F1-A10 (scFv)
scFv: EVQLLESGGGLVQPGGSLRLSCAASGFTFSDFFMAWVRQAPGRGLEWVSTIVSDGGSTYYRDSVKGRFTISRDNSKNTLYLQMNSLRAEDTAVYYCARRGNSGYYVMDAWGQGTTVTVSSGGGGSGGGGSGGGGSDIQMTQSPSTLSASVGDRVTITCRASSSVTYMHWYQQKPGKAPKLLIYDTSKVASGVPSRFSGSGSGTEFTLTISSLQPDDFATYYCQQWSRNSPYTFGQGTKLEIK
notes: crude periplasmic extract from E. coli, His-tagged; also called PM F1-A10 HL
Take B5: the binding result with human PSMA was “binds”.
